Experimental data reported in US20240409645A1.
Where a chain is given by its changes, count along the chain named.

T1: mouse IL-2Rγ (mouse) (UniProt P34902)
T1 sequence (looked up): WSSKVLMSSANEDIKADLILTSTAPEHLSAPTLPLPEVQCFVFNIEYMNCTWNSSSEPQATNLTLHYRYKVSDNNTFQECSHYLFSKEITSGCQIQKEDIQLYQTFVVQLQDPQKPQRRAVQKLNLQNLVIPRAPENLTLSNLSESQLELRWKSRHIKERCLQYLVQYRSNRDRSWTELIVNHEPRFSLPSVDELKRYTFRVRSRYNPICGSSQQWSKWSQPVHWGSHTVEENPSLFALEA

T2: mouse IL-2Rβ (mouse) (UniProt P16297)
T2 sequence (looked up): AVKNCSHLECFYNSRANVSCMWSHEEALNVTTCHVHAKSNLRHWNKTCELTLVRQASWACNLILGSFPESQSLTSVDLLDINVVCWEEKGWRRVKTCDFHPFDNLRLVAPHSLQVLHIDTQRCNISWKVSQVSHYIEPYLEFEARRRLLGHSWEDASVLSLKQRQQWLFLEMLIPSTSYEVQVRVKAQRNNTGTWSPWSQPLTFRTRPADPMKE

B1: 33-MP04C09 (VHH)
VHH: QLQLVESGGGLVQAGGSLRLSCAASGPTFSRVAVGWFRQAPGKEREFVAAVNRPATMTKYADSVKGRFTVSRDNAKNTVDLQMNSMKPEDTAVYYCAADSVPYGRPYYWQTSAGDYDYWGQGTQVTVSS
B2: FJ1427_P035MP04B02 (VHH)
VHH: QVQLVESGGGWVQVGESLRLSCAPSGRTFVSGIMGWFRQTPGKEREFVARIILNNNSTRYTDSVKGRFTISRDSAKNTMYLQMNTLRPEDTAVYYCAARDRYGSGNSLSPSAYDYWGQGTQVTVSS
B3: FJ1427_P035MP04A03 (VHH)
VHH: B2 VHH with Q1E
B4: FJ1427_P035MP04B06 (VHH)
VHH: B2 VHH with V2L, A23V, T40A
B5: FJ1427_P035MP04E02 (VHH)
VHH: B2 VHH
B6: FJ1427_P035MP04B07 (VHH)
VHH: B2 VHH with Q1E, M79L
B7: FJ1427_P035MP04C05 (VHH)
VHH: B2 VHH with T40A, N77D
B8: 30-MP04C03 (VHH)
VHH: EVQLVESGGGWVQDGGSLRLSCALSGRTFVRGIMGWFRQAPGKEREFVARIIWHINSTRYADSVKGRFTISRDSAKNTMYLQMDSLRPEDTAVYYCAARDRYGSGNSLSPSAYDYWGQGTQVTVSS
B9: FJ1427_P035MP04G03 (VHH)
VHH: B2 VHH with Q1E, T40A, N84D, T85S
B10: FJ1427_P035MP04E04 (VHH)
VHH: B2 VHH with Q1E, A23V, T40A, N55S, T85S
B11: FJ1427_P035MP04A07 (VHH)
VHH: B2 VHH with V2L, T40A, T61I, N84D, T85S
B12: 27-MP04G01 (VHH)
VHH: QVQLVESGGGLVQAGGSLTLSCAAPGRTFGTDVVGWFRQAPGKEREFVASISRSGDGIYYDDSVKGRFTISRNNAWNTVNLQMNSLKVEDTAVYYCAAGDGWSTYDYWGQGTQVTVSS
B13: FJ1427_P035MP04C01 (VHH)
VHH: B12 VHH with P25S, G30S, S85N
B14: FJ1427_P035MP04F02 (VHH)
VHH: QLQLVESGGGLVQAGGSLTLSCAASGRTFSRDVVGWFRQAPGKEREFVASISRSGDGTFYTDSVKGRFTISSRDNAKNTVLLQMNSLKVEDTAVYYCAAGDGWSTYDYWGQGTQVTVSS
B15: 32-MP04A08 (VHH)
VHH: QVQLVESGGGLVQAGGSLRLSCAASGRTFGSTAVGWFRQVPGKEREFVSAINRSGSATTYADSVKGRFTISRDNAKNTVYLQMNSLTPEDTGVYYCAADSLPYGRPYYFQRSAGEYDYWGQGTQVTVSS
B16: FJ1427_P035MP04B03 (VHH)
VHH: QVQLQESGGGLVQAGESLRLSCAASGPTASRVAVAWFRQVPGKEREFVAVVNRPGTMTKYADSVKGRFTISRDSAKNTVYLQMNSLKPEDTAVYYCAADSVPYGRPYYFQTSAGNYDYWGQGTQVTVSS
B17: FJ1427_P035MP04A04 (VHH)
VHH: B16 VHH with Q5V
B18: 35-MP07G01 (VHH)
VHH: QVQLQESGGGLVQGGGSLRLSCAASGGIFSSYAMGWFRQAPGKEREFVAAISRSGRSTNYADSVKGRFTISRDNAKSTVYLQMNSLKPEETAVYYCAAGRYYNSAYDPSPGDFGSWGHGTQVTVSS
B19: 29-MP04H02 (VHH)
VHH: QVQLVESGGGLVQAGGSLRLACVASGLTFDNYYMGWFRQAPGKEREFVAGIIWNGDHTAYADSIKGRFTISRDNAKNTAYLRMNSLKPEDTAVYYCAATFWIERATTPDIGQYAYWGQGTQVTVSS
B20: FJ1427_P035MP03G10 (VHH)
VHH: QVQLVESGGGLVQAGGSLRLSCAASGRSYAMGWFRQAPGKEREFVAAISWSASSTYYSESVKGRFTISRENAKNTVYLQMNSLKPEDTAVYYCAVRASPFVAGSYDPSDDPADYGSWGQGTQVIVSS
B21: FJ1427 P035MP03C10 (VHH)
VHH: QVQLVESGGGLVQAGGSLRLSCAASGRTFSTTEMGWFRQAPGKEREFVAAITWTGRGTMYAESVEGRFTISRENAKNMVYLQMNSLKPEDTAIYYCAAARRGRAAVRSEGGYDFWGQGTQVTVSS
B22: FJ1427 P035MP03H10 (VHH)
VHH: B21 VHH
B23: FJ1427 P035MP03B11 (VHH)
VHH: EVQLVESGGGLVQAGGSLRLACALSGDVFVRYTMAWFRQAPGKEREFVASVTDSGRTTDYVASVQGRFTVSRDNNKNTVYLQMNSLKPEDTAVYYCAANTDYFQIRSLDRNTWGQGTQVTVSS
B24: FJ1427 P035MP06G01 (VHH)
VHH: EVQLVESGGGLVQAGDSLRLSCVVSGRGFSTYTMGWFRQAPGKEREFVAAITWSTGRTSYADSVKGRFTISRENAENTVYLQMNSLELEDTAVYYCATDQVLWTTRPRDMRYWGQGTQVTVSF
B25: FJ1427 P035MP03F11 (VHH)
VHH: QVQLVESGGGLAQAGGSLRLSCAASGRTFSQDAKAWFRQAPGKEREFVAAITWSGRDTDYADSVKGRFTIARDNAKNTVYLQMDSLKPEDTAVYYCAVYPQGTIGPYFRSSNHYDYWGQGTQVTVSS
B26: FJ1427 P035MP03B10 (VHH)
VHH: QVQLVESGGGLVQAGGSLRLSCVVSGDVFVRYTMAWFRQAPGKEREFVAVVTDSGRTTEYVDSVKGRFTVSRDNAKNTVYLQMNNLKPEDTAVYYCAANTDYFQIRSVDNNAWGQGTQVTVSS
B27: FJ1427_P035MP03E11 (VHH)
VHH: B26 VHH with Q1E, V50A, K87E
B28: FJ1427_P035MP06B02 (VHH)
VHH: B26 VHH with V50A
B29: FJ1427 P035MP03B12 (VHH)
VHH: B23 VHH with A21S, L24A, S50A, T58A, A62D, Q65K, N75A, S85N
B30: FJ1427_P035MP03D10 (VHH)
VHH: QVQLQESGGGLVQAGDSLRLSCVVSGRDFSGYTMGWFRQPPGKEREFVALITWSTGRVHYTDSVEGRFTISRDSAKNTVYLQMNSLKPEDTAVYTCAAGRVGYTTNLHSYDYSGQGTQVIVSA
B31: FJ1427 P035MP03D11 (VHH)
VHH: QVQLVESGGGLVQAGGSLRLSCAASGRTFSTTDVGWFRQAPGKEREFVAAITWSSHSTLYADSVEGRFTVTRENAKNTVYLQMNSLKPEDTAVYYCAAVRRGWAVVRTEGAYDFWGQGTQVTVSA
B32: FJ1427_P035MP03E10 (VHH)
VHH: EVQLVESGGGLVQPGGSLRLSCAASGFTFRNYAMSWVRQAPGKGLEWVGGITGEGLGTIYQDSVEGRFTISRNNAKNTLYLQMNSLRSEDTAVYYCTKMASGTLFRDKPYEYTSRGQGTQVTVSS
B33: FJ1427 P035MP03C12 (VHH)
VHH: QVQLVESGGGLVQAGGSLRLSCAASGRAFSTYSMGWFRQTPGKEREFVAIISESGGIIDYGDSVKGRFTLSRDNAKNTVSLQMSSLQPEDTAVYYCAAARDWFARTAYQYDYWGQGTQVTVSA

molecular target: T1, mouse IL-2Rγ (mouse); assay: PE binding ELISA, periplasmic extract on coated protein

Question: With B1 as the binder, how does the OD (PE binding ELISA) read?
Answer: 0.047 OD450 nm

Question: With B2 as the binder, how does the OD (PE binding ELISA) read?
Answer: 0.048 OD450 nm

Question: B3 was tested. Which OD (PE binding ELISA) did it give?
Answer: 0.052 OD450 nm

Question: Which OD (PE binding ELISA) does the source give for B4 here?
Answer: 0.048 OD450 nm

Question: How did the OD (PE binding ELISA) turn out when B5 was run?
Answer: 0.049 OD450 nm

Question: Which OD (PE binding ELISA) does the source give for B6 here?
Answer: 0.047 OD450 nm

Question: How did the OD (PE binding ELISA) turn out when B7 was run?
Answer: 0.047 OD450 nm

Question: Which OD (PE binding ELISA) does the source give for B8 here?
Answer: 0.048 OD450 nm

Question: Which OD (PE binding ELISA) does the source give for B9 here?
Answer: 0.049 OD450 nm

Question: B10 was tested. Which OD (PE binding ELISA) did it give?
Answer: 0.048 OD450 nm

Question: How did the OD (PE binding ELISA) turn out when B11 was run?
Answer: 0.049 OD450 nm

Question: Which OD (PE binding ELISA) does the source give for B12 here?
Answer: 0.048 OD450 nm

Question: How did the OD (PE binding ELISA) turn out when B13 was run?
Answer: 0.049 OD450 nm

Question: How did the OD (PE binding ELISA) turn out when B14 was run?
Answer: 0.049 OD450 nm

Question: Which OD (PE binding ELISA) does the source give for B15 here?
Answer: 0.05 OD450 nm

Question: For B16, which OD (PE binding ELISA) is on record?
Answer: 0.048 OD450 nm

Question: Which OD (PE binding ELISA) does the source give for B17 here?
Answer: 0.05 OD450 nm

Question: For B18, which OD (PE binding ELISA) is on record?
Answer: 0.045 OD450 nm

Question: Which OD (PE binding ELISA) does the source give for B19 here?
Answer: 0.05 OD450 nm

molecular target: T2, mouse IL-2Rβ (mouse); assay: P.E. binding ELISA on coated protein

Question: With B20 as the binder, how does the P.E. binding ELISA OD read?
Answer: 0.048 OD450 nm

Question: Which P.E. binding ELISA OD does the source give for B21 here?
Answer: 0.047 OD450 nm

Question: For B22, which P.E. binding ELISA OD is on record?
Answer: 0.049 OD450 nm

Question: Which P.E. binding ELISA OD does the source give for B23 here?
Answer: 0.052 OD450 nm

Question: With B24 as the binder, how does the P.E. binding ELISA OD read?
Answer: 0.049 OD450 nm

Question: With B25 as the binder, how does the P.E. binding ELISA OD read?
Answer: 0.048 OD450 nm

Question: For B26, which P.E. binding ELISA OD is on record?
Answer: 0.05 OD450 nm

Question: Which P.E. binding ELISA OD does the source give for B27 here?
Answer: 0.05 OD450 nm

Question: For B28, which P.E. binding ELISA OD is on record?
Answer: 0.048 OD450 nm

Question: B29 was tested. Which P.E. binding ELISA OD did it give?
Answer: 0.049 OD450 nm

Question: For B30, which P.E. binding ELISA OD is on record?
Answer: 0.047 OD450 nm

Question: How did the P.E. binding ELISA OD turn out when B31 was run?
Answer: 0.049 OD450 nm

Question: B32 was tested. Which P.E. binding ELISA OD did it give?
Answer: 0.048 OD450 nm

Question: B33 was tested. Which P.E. binding ELISA OD did it give?
Answer: 0.047 OD450 nm
